Experimental data taken from paper PMC11615228, “3D variability analysis reveals a hidden conformational change controlling ammonia transport in human asparagine synthetase” (Nature Communications, 2024).
Positions count from the first letter of the chain named. In names and notes the source's numbering stands.

B1: wild-type (WT) human asparagine synthetase (ASNS) (enzyme, UniProt P08243 1-561, looked up)
chain: MCGIWALFGSDDCLSVQCLSAMKIAHRGPDAFRFENVNGYTNCCFGFHRLAVVDPLFGMQPIRVKKYPYLWLCYNGEIYNHKKMQQHFEFEYQTKVDGEIILHLYDKGGIEQTICMLDGVFAFVLLDTANKKVFLGRDTYGVRPLFKAMTEDGFLAVCSEAKGLVTLKHSATPFLKVEPFLPGHYEVLDLKPNGKVASVEMVKYHHCRDVPLHALYDNVEKLFPGFEIETVKNNLRILFNNAVKKRLMTDRRIGCLLSGGLDSSLVAATLLKQLKEAQVQYPLQTFAIGMEDSPDLLAARKVADHIGSEHYEVLFNSEEGIQALDEVIFSLETYDITTVRASVGMYLISKYIRKNTDSVVIFSGEGSDELTQGYIYFHKAPSPEKAEEESERLLRELYLFDVLRADRTTAAHGLELRVPFLDHRFSSYYLSLPPEMRIPKNGIEKHLLRETFEDSNLIPKEILWRPKEAFSDGITSVKNSWFKILQEYVEHQVDDAMMANAAQKFPFNTPKTKEGYYYRQVFERHYPGRADWLSHYWMPKWINATDPSARTLTHYKSAVKA
notes: human asparagine synthetase (glutamine-hydrolysing), unmodified recombinant enzyme; the N-terminal residue is Cys-1 (initiator Met removed) and the C-terminal tail ends at residue 560; Cys-1 is C2 in P08243); No tag is stated for the WT enzyme; the variants were purified on Ni-NTA, so the WT construct may also carry a His tag; Residues 201-220, 465-475 and 539-560 have no density in the EM map …
B2: R142I ASNS variant (human asparagine synthetase with Arg-142 replaced by isoleucine) (enzyme, UniProt P08243 1-561, looked up)
chain: B1 chain with R143I
notes: human asparagine synthetase with R142I; only elution from Ni-NTA with imidazole is described; also called R142I variant; ASNS R142I; source: Sf9 cells (baculovirus), purified (Ni-NTA, PD-10 buffer exchange)

Biological target: the molecule itself
Test: cryo-EM structure; single-particle cryo-EM of the purified enzyme without ligands; 25 mM Tris-HCl pH 8.0, 200 mM NaCl, 5 mM DTT; WT at 9.0 mg/mL, R142I at 3.2 mg/mL; grids made at 4 °C; C2 symmetry imposed

Row | Protein | stoichiometry N
1 | B1 | 2
2 | B2 | 2
